Laboratory results from US20020146750A1 (published 2002).
Substitutions are numbered along the chain they refer to.

B1: clone 21 (unselected SPIKE library) (Fab, V domains shown)
VH: QVQLVQSGGGLVQPGGSLRLSCAASGFTFRSNAMGWVRQAPGKGLEWVSGISGSGGSTYYADSVKGRFTISRDNSKNTLYLQMNSLRAEDTAVYYCANQTGGGVWDPIDYWGQGTLVTVSS
VL: EIVLTQSPLSLPVTPGEPASISCRSSQSLLHSNGYTYLDWYLQKPGQSPQLLIYSGSHRASGVPDRFSGSVSGTDFTLRISRVEAEDVGVYYCMQGLQSPFTFGPGTKVDIKR
B2: clone 22 (unselected SPIKE library) (Fab, V domains shown)
VH: B1 VH with N98R, Q99H, D109Y
VL: B1 VL
B3: clone 20 (unselected SPIKE library) (Fab, V domains shown)
VH: B1 VH with N98S, Q99H, G103R, V104G
VL: B1 VL
B4: clone 23 (unselected SPIKE library) (Fab, V domains shown)
VH: B1 VH with N98K, Q99P, V104A
VL: B1 VL
B5: clone 25 (unselected SPIKE library) (Fab, V domains shown)
VH: B1 VH with N98K, Q99H, G102V, D106H, D109Y
VL: B1 VL
B6: 3F7 (Fab, V domains shown)
VH: B1 VH with N98K, Q99H, D109Y
VL: B1 VL
notes: PH1 Fab variant
B7: 10A9 (Fab, V domains shown)
VH: B1 VH with N98K, Q99H, D109H, Y110N
VL: B1 VL
notes: PH1 Fab variant
B8: 6C10 (Fab, V domains shown)
VH: B1 VH with N98K, Q99H, D109H
VL: B1 VL
notes: PH1 Fab variant
B9: 6B5 (Fab, V domains shown)
VH: B1 VH with N98K, Q99H, D109A
VL: B1 VL
notes: PH1 Fab variant
B10: 11F4 (Fab, V domains shown)
VH: B1 VH with N98K, Q99H, D109S, Y110S
VL: B1 VL
notes: PH1 Fab variant
B11: 11D4 (Fab, V domains shown)
VH: B1 VH with N98K, Q99H, I108M, D109A, Y110S
VL: B1 VL
notes: PH1 Fab variant
B12: 10F9 (Fab, V domains shown)
VH: B1 VH with N98K, Q99H, D106N, D109G, Y110H
VL: B1 VL
notes: PH1 Fab variant
B13: 6B6 (Fab, V domains shown)
VH: B1 VH with N98K, Q99H, D109G
VL: B1 VL
notes: PH1 Fab variant
B14: 10E10 (Fab, V domains shown)
VH: B1 VH with N98K, Q99H, D106N
VL: B1 VL
notes: PH1 Fab variant
B15: 11G9 (Fab, V domains shown)
VH: B1 VH with N98K, Q99H, D109G
VL: B1 VL
notes: PH1 Fab variant
B16: 7F3 (Fab, V domains shown)
VH: B1 VH with N98I, Q99H, D109K
VL: B1 VL
notes: PH1 Fab variant; also called clone 7F3
B17: 3G1 (Fab, V domains shown)
VH: B1 VH with N98K, Q99H, Y110D
VL: B1 VL
notes: PH1 Fab variant
B18: 6C8 (Fab, V domains shown)
VH: B1 VH with N98K, Q99H, D109N, Y110D
VL: B1 VL
notes: PH1 Fab variant
B19: 10E1 (Fab, V domains shown)
VH: B1 VH with N98K, Q99H, D109A
VL: B1 VL
notes: PH1 Fab variant
B20: 10F3 (Fab, V domains shown)
VH: B1 VH with N98K, Q99H, D109V, Y110P
VL: B1 VL
notes: PH1 Fab variant
B21: 11B9 (Fab, V domains shown)
VH: B1 VH with N98R, Q99H, D109N
VL: B1 VL
notes: PH1 Fab variant
B22: 5A6 (Fab, V domains shown)
VH: B1 VH with A97V, N98K, Q99H
VL: B1 VL
notes: PH1 Fab variant
B23: 11F2 (Fab, V domains shown)
VH: B1 VH with N98I, Q99H, G102A, D109R
VL: B1 VL
notes: PH1 Fab variant
B24: 10C10 (Fab, V domains shown)
VH: B1 VH with N98K, Q99H, G102V, D109K
VL: B1 VL
notes: PH1 Fab variant
B25: 11C1 (Fab, V domains shown)
VH: B1 VH with N98K, Q99H, G102E, D109K
VL: B1 VL
notes: PH1 Fab variant
B26: 11F9 (Fab, V domains shown)
VH: B1 VH with A97T, N98K, Q99H, D109N
VL: B1 VL
notes: PH1 Fab variant
B27: 6E4 (Fab, V domains shown)
VH: B1 VH with N98K, Q99H, I108V
VL: B1 VL
notes: PH1 Fab variant
B28: 10B3 (Fab, V domains shown)
VH: B1 VH with N98K, Q99H, D109G
VL: B1 VL
notes: PH1 Fab variant
B29: 7D1 (Fab, V domains shown)
VH: B1 VH with N98K, Q99H, D109K, Y110H
VL: B1 VL
notes: PH1 Fab variant; also called clone 7D1
B30: 6B3 (Fab, V domains shown)
VH: B1 VH with N98K, Q99H, D109G, Y110H
VL: B1 VL
notes: PH1 Fab variant
B31: 10F8 (Fab, V domains shown)
VH: B1 VH with N98K, Q99H, I108M, D109H
VL: B1 VL
notes: PH1 Fab variant
B32: 3H1 (Fab, V domains shown)
VH: B1 VH with N98K, Q99H, I108F, D109A
VL: B1 VL
notes: PH1 Fab variant
B33: 6A9 (Fab, V domains shown)
VH: B1 VH with N98K, Q99H, G102S, D109N
VL: B1 VL
notes: PH1 Fab variant
B34: 7B5 (Fab, V domains shown)
VH: B1 VH with N98K, Q99H, D109A
VL: B1 VL
notes: PH1 Fab variant
B35: 3H2 (Fab, V domains shown)
VH: B1 VH with N98K, Q99H, I108M
VL: B1 VL
notes: PH1 Fab variant
B36: 11F7 (Fab, V domains shown)
VH: B1 VH with N98K, Q99H, G102V, I108M, D109N
VL: B1 VL
notes: PH1 Fab variant
B37: 6F4 (Fab, V domains shown)
VH: B1 VH with A97S, N98K, Q99H, D109G
VL: B1 VL
notes: PH1 Fab variant
B38: 8F5 (Fab, V domains shown)
VH: B1 VH with N98K, Q99H, D109A
VL: B1 VL
notes: PH1 Fab variant
B39: 6C5 (Fab, V domains shown)
VH: B1 VH with A97V, N98K, Q99H, D109V
VL: B1 VL
notes: PH1 Fab variant

These binders were tested against T1, MUC1 60-mer peptide NH2-(…)3-COOH (biotinylated in the ELISAs and selections) (assay: phage ELISA on MUC1 antigen (biotinylated MUC1 60-mer)).
T1 construct: also called biotinylated MUC1 60-mer
In the case of B1, the “ELISA OD450” value is reported as 0.108 OD450. In the case of B2, the “ELISA OD450” value is reported as 0.663 OD450. B3 was tested, and the “ELISA OD450” value was 0.109 OD450. In the case of B4, the “ELISA OD450” value is reported as 0.373 OD450. B5 was tested, and the “ELISA OD450” value was 0.315 OD450.

The binders below were run against T1, MUC1 60-mer peptide NH2-(…)3-COOH (assay: ELISA, soluble Fab, biotinylated MUC1 60-mer; relative signal).
Procedure: Soluble Fabs were produced as described (Roovers et al., Br. J. Cancer, 78: 1407-16 (1998)). ELISAs were performed as described by Henderikx et al. (Cancer Res., 58: 4324-4332 (1998)), except the biotinylated MUC1 60-mer was used. The selected PH1 and the affinity-matured antibodies were evaluated for affinity by surface plasmon resonance (SPR) on a BIAcore 2000 apparatus (BIAcore AB, Uppsala, Sweden). Channels of a biotin chip were coated with a MUC1 15-mer, containing the minimal PH1 epitope, PAP, (Ac-PDTRPAPGSTAPPAL-NH₂, (SEQ ID NO:40) 50 RU or 320 RU) or a 60-mer (NH₂-([…])₃-COOH (i.e., containing three copies of SEQ ID NO:8 (von Mensdorff-Pouilly et al., Tumor Biol., 19: 186-195 (1998), 50 RU) in HBS-EP buffer (Pharmacia). One surface was blocked with biotin (15 RU) and used as a negative control. The antibodies were injected in HBS-EP buffer. To minimize rebinding of the antigen binding fragments, the flow speed was 30 μl/sec. Affinity calculation was performed with the BIA-evaluation software provided by the BIAcore. The affinities of the Fabs were calculated according to a 1:1 stoichiometry at steady state.
B6: binds. B7: binds. B8: binds. B9: binds. B10: binds. B11: binds. B12: binds. B13: binds. B14: binds. B15: binds. B16: binds. B17: binds. B18: binds. B19: binds. B20: binds. B21: binds. B22: binds. B23: binds. B24: binds. B25: binds. B26: binds. B27: binds. B28: binds. B29: binds. B30: binds. B31: binds. B32: binds. B33: binds. B34: binds. B35: binds. B36: binds. B37: binds. B38: binds. B39: binds.
